This passage reports Km, kcat and kcat/Km results from article PMC10212915, “An ancient metabolite damage-repair system sustains photosynthesis in plants” (Nature Communications, 2023).

Common to all, as to test: malachite green phosphate release assay
What all share (type): biochemical, Arabidopsis thaliana
What all share (conditions): MOPS-KOH pH 7.5, 100 mM KCl, 10 mM MgCl2, 25 °C

Substrate in data set [1]: O=C(COP(=O)(O)O)[C@H](O)[C@H](O)COP(=O)(O)O
The text has this:
(§1) malachite green phosphate release assay on MBP-AtCbbYB

Substrate in data set [2]: O=C(COP(=O)(O)O)[C@@H](O)[C@H](O)COP(=O)(O)O
Source text: as §1

Substrate in data set [3]: O=C(COP(=O)(O)O)[C@H](O)[C@H](O)COP(=O)(O)O
The text has this: (§2) malachite green phosphate release assay on MBP-AtCbbYA
This is another data set of the same source.

Substrate in data set [4]: O=C(COP(=O)(O)O)[C@@H](O)[C@H](O)COP(=O)(O)O
Source text: as §2
The source holds these as a separate data set.

B1: MBP-AtCbbYB (Arabidopsis thaliana) (protein)
chain: SKSRVSSPVSALPLRSLEALIFDCDGVILESENLHRQAYNDAFSHFDVRCPPSSSESLDWSLEFYDKFQNLVGGGKPKMRWYFKENGWPTSTIFDSPPQNDDDRAKLIDTLQDWKTERYKEIIKSGSVEPRPGVIRLMDEAKAAGKKLAVCSAATKSSVILCLENLIDIERFQGLDCFLAGDDVKEKKPDPSIYITAAEKLGVSVKDCLVVEDSVIGLQAATKAGMSCVITYTSSTSDQNFNDAIAVYPDLSNVKLKDLETLLQTIVTAA
Turning to B1, in data set [1], the Km (usually the concentration of substrate that gives half-maximal velocity) came out at 4840 ± 360 µM; the kcat – broadly, the maximal rate divided by the concentration of active sites – is 0.015 ± 0.002 s⁻¹; the kcat/Km (usually the second-order rate constant that governs catalysis at low substrate concentration) amounted to 3.2 ± 0.4 M⁻¹ s⁻¹. Also, in data set [2], the Km came out at 182 ± 30 µM, the kcat was determined as 0.54 ± 0.05 s⁻¹ and the kcat/Km came out at 3000 M⁻¹ s⁻¹.

B2: MBP-AtCbbYA (Arabidopsis thaliana) (protein)
chain: CSASSSLTTLPSALLFDCDGVLVDTEKDGHRISFNDTFKERDLNVTWDVDLYGELLKIGGGKERMTAYFNKVGWPEKAPKDEAERKEFIAGLHKQKTELFMVLIEKKLLPLRPGVAKLVDQALTNGVKVAVCSTSNEKAVSAIVSCLLGPERAEKIKIFAGDVVPKKKPDPAIYNLAAETLGVDPSKCVVVEDSAIGLAAAKAAGMTCIVTKSGYTADEDFENADAVFDCIGDPPEERFDLAFCGSLLRKQFVS
As for B2, in data set [3], the Km was 4310 ± 110 µM, the kcat is 0.043 ± 0.009 s⁻¹ and the kcat/Km was determined as 10 ± 2 M⁻¹ s⁻¹. For the same protein, in data set [4], the Km amounted to 40 ± 1 µM, the kcat turned out to be 2.13 ± 0.04 s⁻¹ and the kcat/Km is 53000 ± 2000 M⁻¹ s⁻¹.
